From patent US20150272885A1 (STC UNM, published 2015) come the findings set out here.

No end group written: not given here.

Assay [1] deals with T1, recombinant human Met (rhMet), fused to the Fc domain of human IgG (human, UniProt P08581 25-932).
T1 construct: also called MET receptor; hepatocyte growth factor receptor; not shown: Fc domain of human IgG
As to the kind of experiment: phage display selection on rhMet-Fc, five rounds; phage ELISA on rhMet. As for the experimental part: Peptides at 1×10¹¹ pfu/mL were incubated with 100 nM of recombinant human Met (rhMet), fused to the Fc domain of human IgG, for 1 hour at room temperature. […] Bound phage clones were eluted with a low-pH buffer (0.2 M glycine with 1 mg/mL BSA, pH 2.2), and elutants were amplified via infection of the host bacterium (E. coli ER2738).
1×10¹¹ pfu/mL were incubated with 100 nM of recombinant human Met (rhMet), fused to the Fc domain of human IgG, for 1 hour at room temperature. […] Bound phage clones were eluted with a low-pH buffer (0.2 M glycine with 1 mg/mL BSA, pH 2.2), and elutants were amplified via infection of the host bacterium (E. coli ER2738). […] Peptides specific for protein A and protein G were avoided by alternating rounds of selection between protein A-coated magnetic particles and protein G-coated magnetic particles. After five rounds of selection, DNA was recovered from 40 individual clones and sequenced using the −96 gIII primer provided with the Ph.D.™-7 kit.

Assay [2] has as its target T2, ephrin B2 (EB2) on cells (human, UniProt P52799 28-333).
T2 construct: whole, on cells; The species is stated as human for the CHO-K1 transfectants; also called human ephrin B2
As to the kind of experiment: phage display selection on CHO-K1 cells expressing human EB2, with counter-selection on parental CHO-K1 and on CHO-K1 expressing ephrin B1.

Assay [3] has as its target Met (hepatocyte growth factor receptor) on Hep3B cells (human) (UniProt P08581). As to the kind of experiment: flow cytometry saturation binding on cytochalasin D-treated Hep3B cells, 1 hour at 37 C; specific binding = total minus binding with saturating unlabeled HGF; apparent Kd of the multivalent particle. For orientation: A flow cytometer gives signals particle by particle.

The target of assay [4] is T2, ephrin B2 (EB2) on cells. Put plainly: flow cytometry, EB2-positive HEK 293 against EB2-negative parental CHO-K1.

T1 sequence (P08581 25-932 limits assumed): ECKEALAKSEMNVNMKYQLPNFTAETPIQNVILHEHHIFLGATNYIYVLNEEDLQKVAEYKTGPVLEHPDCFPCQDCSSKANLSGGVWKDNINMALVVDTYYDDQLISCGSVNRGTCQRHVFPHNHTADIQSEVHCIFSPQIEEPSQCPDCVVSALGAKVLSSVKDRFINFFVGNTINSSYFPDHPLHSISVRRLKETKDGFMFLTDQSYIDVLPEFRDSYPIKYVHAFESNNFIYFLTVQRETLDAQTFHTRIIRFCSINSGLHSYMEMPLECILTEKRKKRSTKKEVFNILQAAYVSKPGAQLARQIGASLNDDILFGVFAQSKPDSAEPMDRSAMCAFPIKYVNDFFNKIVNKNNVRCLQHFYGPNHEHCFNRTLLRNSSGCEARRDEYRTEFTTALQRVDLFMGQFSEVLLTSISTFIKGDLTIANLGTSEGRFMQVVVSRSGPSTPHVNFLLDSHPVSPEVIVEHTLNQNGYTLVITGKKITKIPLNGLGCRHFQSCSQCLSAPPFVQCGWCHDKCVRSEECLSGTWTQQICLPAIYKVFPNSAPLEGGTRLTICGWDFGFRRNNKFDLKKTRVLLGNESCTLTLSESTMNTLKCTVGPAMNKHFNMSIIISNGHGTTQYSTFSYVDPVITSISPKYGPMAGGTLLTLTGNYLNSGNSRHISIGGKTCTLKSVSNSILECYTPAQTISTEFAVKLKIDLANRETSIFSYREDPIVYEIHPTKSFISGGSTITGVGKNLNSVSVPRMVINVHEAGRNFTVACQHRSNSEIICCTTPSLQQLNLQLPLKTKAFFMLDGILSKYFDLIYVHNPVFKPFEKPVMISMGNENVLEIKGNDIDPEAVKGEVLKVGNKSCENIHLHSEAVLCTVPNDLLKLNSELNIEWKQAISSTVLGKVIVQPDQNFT
T2 sequence (P52799 28-333): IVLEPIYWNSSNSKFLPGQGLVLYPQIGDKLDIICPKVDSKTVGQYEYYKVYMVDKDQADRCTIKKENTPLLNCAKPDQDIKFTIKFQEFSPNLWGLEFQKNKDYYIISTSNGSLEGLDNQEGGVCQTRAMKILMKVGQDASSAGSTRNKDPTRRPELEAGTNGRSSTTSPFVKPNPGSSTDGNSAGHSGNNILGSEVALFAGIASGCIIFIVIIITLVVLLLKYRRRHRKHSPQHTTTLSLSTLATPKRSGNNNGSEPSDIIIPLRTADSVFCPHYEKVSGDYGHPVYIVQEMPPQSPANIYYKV
Met (hepatocyte growth factor receptor) on Hep3B cells (human), sequence (P08581 25-1390): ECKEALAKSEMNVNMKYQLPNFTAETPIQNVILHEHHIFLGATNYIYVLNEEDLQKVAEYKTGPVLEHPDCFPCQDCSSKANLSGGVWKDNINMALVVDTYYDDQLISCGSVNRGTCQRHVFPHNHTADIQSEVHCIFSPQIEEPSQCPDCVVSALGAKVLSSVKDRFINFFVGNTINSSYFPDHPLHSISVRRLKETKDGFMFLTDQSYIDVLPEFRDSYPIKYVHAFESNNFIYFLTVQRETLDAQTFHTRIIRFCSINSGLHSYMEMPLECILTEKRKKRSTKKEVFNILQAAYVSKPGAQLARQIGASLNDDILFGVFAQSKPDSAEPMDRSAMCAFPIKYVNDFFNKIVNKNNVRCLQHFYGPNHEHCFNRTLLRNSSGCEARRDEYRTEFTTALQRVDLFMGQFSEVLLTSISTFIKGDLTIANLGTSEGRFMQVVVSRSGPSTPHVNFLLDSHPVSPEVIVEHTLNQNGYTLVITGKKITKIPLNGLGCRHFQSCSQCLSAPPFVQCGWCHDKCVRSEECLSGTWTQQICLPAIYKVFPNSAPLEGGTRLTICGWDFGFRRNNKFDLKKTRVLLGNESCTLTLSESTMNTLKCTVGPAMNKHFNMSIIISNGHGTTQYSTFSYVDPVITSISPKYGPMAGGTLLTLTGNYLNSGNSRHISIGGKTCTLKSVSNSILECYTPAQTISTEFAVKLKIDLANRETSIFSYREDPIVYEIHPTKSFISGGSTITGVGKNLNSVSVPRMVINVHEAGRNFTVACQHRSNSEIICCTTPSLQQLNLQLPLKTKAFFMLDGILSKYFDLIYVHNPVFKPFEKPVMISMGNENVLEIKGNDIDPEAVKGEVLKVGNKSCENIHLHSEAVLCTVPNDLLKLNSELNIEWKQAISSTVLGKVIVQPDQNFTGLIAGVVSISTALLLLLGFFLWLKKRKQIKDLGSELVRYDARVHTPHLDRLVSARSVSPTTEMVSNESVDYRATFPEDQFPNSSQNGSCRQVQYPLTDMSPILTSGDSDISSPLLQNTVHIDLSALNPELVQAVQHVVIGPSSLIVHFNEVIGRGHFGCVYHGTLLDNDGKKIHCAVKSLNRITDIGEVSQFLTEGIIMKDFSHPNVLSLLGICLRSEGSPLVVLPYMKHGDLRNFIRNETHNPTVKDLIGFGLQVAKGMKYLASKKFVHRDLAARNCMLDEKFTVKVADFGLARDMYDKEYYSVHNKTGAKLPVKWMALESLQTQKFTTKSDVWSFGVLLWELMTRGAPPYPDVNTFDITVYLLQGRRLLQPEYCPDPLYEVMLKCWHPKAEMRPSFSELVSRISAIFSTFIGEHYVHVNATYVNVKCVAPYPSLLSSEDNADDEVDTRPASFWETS

B1: MET binding peptide TSPVALL (SEQ ID NO: 3) (peptide)
peptide: TSPVALL
notes: 7-mer from Ph.D.-7 phage display, tested as a phage clone
For B1, in assay [1], the binding result is reported as “binds”.

B2: MC40 targeting peptide ASVHFPP (SEQ ID NO: 1) (peptide)
peptide: ASVHFPP
notes: 7-mer selected from the Ph.D.-7 phage display library; also called MC40 clone
As for B2, the binding result in assay [1] is recorded as “binds”.

B3: TGAILHP peptide (SEQ ID NO: 18) (peptide)
peptide: TGAILHP
notes: 7-mer from phage display; It was selected on CHO-K1 cells expressing human ephrin B2, with counter-selection on parental CHO-K1 and on CHO-K1 expressing human ephrin B1; also called ephrin B2 targeting peptide
For the molecule B3, the binding result in assay [2] was “binds”.

B4: MC40-targeted protocells (mesoporous silica nanoparticle-supported lipid bilayer modified with 0.015 wt %, ~6 peptides/particle, of the MC40 targeting peptide) (peptide, not shown: small tags and cut ends)
peptide: ASVHFPPC
modifications: also: C-terminal Cys conjugated via sulfhydryl-to-amine crosslinker to DOPE in the protocell lipid bilayer
For B4, the Kd in assay [3] was determined as 1.05 nM.

B5: TGAILHP-targeted MSN-SLBs, low peptide valency (0.015 wt % or ~5 peptides/particle) (other)
peptide: TGAILHP
modifications: not fully specified
notes: Multivalent display on mesoporous silica nanoparticle-supported lipid bilayers; also called MSN-SLBs modified with 0.015 wt % of TGAILHP and 10 wt % PEG-2000
On to B5, for which the “fold higher affinity for HEK 293 cells than for EB2-negative cells (parental CHO-K1)” value in assay [4] is 1000 fold.

B6: MET binding peptide TATFWFQ (SEQ ID NO: 2) (peptide)
peptide: TATFWFQ
notes: as for B1
Turning to B6, the binding result in assay [1] is reported as “binds”.

B7: MET binding peptide IPLKVHP (SEQ ID NO: 4) (peptide)
peptide: IPLKVHP
notes: as for B1
For the molecule B7, in assay [1], the binding result is on record as “binds”.

B8: MET binding peptide WPRLTNM (SEQ ID NO: 5) (peptide)
peptide: WPRLTNM
notes: as for B1
B8: the binding result in assay [1] was “binds”.
